Measurements from the DeepSol protein solubility set.

Experiment: soluble on expression in E. coli; label from the status in PepcDB or PDB records

| Sequence | soluble on expression in E. coli |
| --- | --- |
| MSLAPSPSSSTAPAALQQLGWQARLRWVHGICQGLPKVAQQLDEFLANQTGVVSTAREMQEWREAWVGFQQHKDAWVQACSQALQQAARKPPSQAGESSASGSAPLNFELLSDDVVENKILASRMALAMGETLQPGFEAMRLRMQALEGHELPSRDMFRAETICLHLVEQWLSCGMERKHLLRAVEPLQNALAPLMESEYGILHKLLDAKGVSKAQDAPLRVKRTEGGPPTGAMPLGGASGFGHAAEPGWSSSAMQQFMSAGMAAGIGTEPGIALPPGASAGLGMLARARHRALDAMNQLRQVLSQPAVGIPGLMPGAPLVPMPPASAALAQALQEQQQLMVAELRAQYPAATGSAMAMPAMDYSPAAIDQLVNQVRERSADWKQKAQTTGEKATIEVVALMFQSILSEDRLPPSIRVWFARLQVPVLRVALAEPQFFSDLNHPARKLIDRMGSCVMGFDASSINGNALETEIRRVVQVIEQYPETGQKVFALVLREFEAFLTKHFAQNRSTAKITSVAQQVEQKETLAIQYTIELRNMLTDMPVREEVRDFLFKSWADVLAMATVRYGAKDARAMRFKQAASELVWSASAKPSRQERARVIQGLPTLLQTLREGLELVSVTGDAQSTAIKVLTDTLAQAFMSKTAAIPAERIEAMAKRLSELEKYISEDGKLDDMPLSSESIELMLGVDAGDLNVIPNTDSPVEPAMLEWARSLESGRWFTLDHNGSRVQVQYVWHSRRRHLHLFASLDGHCYLLQAQRMATYLQAGLLAVHDAEALTVRATRDALQKIQANPEREGHHHHHH | soluble |
| MSLAQEDLLAKGEYLTRAANCVACHTVPGGQPFAGGVEFKLPFGSLFSPNITPDPQTGIGAWTDDEFVSALQTGIGRDGKHYYPAFPYTSYSKMSRDDILAIKGYLDSLQPVEQAPRENHIGFPFNQRWGMVFWNLLFLNDEPFQADSQRSAEWNRGKYLVEGPGHCGECHSPRNLFQAVSSERSLAGNLIQGWNAYNISADPVHGIGAWPTDVLAGYLKDGAAPGLGLSSGPMAEVVENSLRHLTDADRQAIAVFLKDSPPRSEGVPRPQQVTLAEPGSGSALGNKLFAEACASCHRWDGTGNQSQTAMLLGLKTVNDPAASNLLGILLSGHGAADAPVNRRMPSFGNIYTDQELAALSSFMLQRFGESGAQVSVPAVAKRRTESLHEGHHHHHH | not soluble |
| MSLAQKVKLSTIAETLGLSTATVSLALRDSPLVAAVTRDKIKEQARALGYIYNRRAASLRTSRSGIIGVVVHDIMNPFYGEILKAIEAELDRDKQTFILSNHYDSVEKQRDFIETLLQLGGDGVIMSPAIGTPPQDIQLAEDNGMPAILIARSIEGLDVPIFRGDDAYGISLATNHLIGLGHRCIAMVGGTDQTSTGRDRYQGYVNALRKANIEVDPDLRIPGPRSKQGGFEAAVHLLSLPQKPTAVVCWNDLVAIGMMNGIARAGLVPGVDISVTGYDDLEEASIATPALTTVWNGQAEVGRSAARALLDKLSGSHEPDGIHLIKPEMRIRQSTGPLRVTEGHHHHHH | soluble |
| MSLAQSVAGSSVLTPGLTVSGPHSHARHSATLPSAMTAFPAAPDLAPPSRAAQGERVLCAMSGGVDSSVTASLLKEQGYQVIGAMMRFWPDDKRTDTFDSCCSPDAAYEARRVAEQVGVPFYLLDYREPFQRHIVGPFLEEYARGRTPNPCVNCNTKVKFDELVKKAKMLGCRYVATGHYVKRVDNAQGEVEFHRGDDPRKDQTYFLWGTPRDALPYILFPVGELEKPQVREIAAERGLLTAQKPESQNICFVPGKVQDFVAEHLPQAQGYIREIATGEVVGEHLGTQFYTLGQKKGLGLYQSHRVRHVVHLDPDSNTVWVGDYDDCLWTGLKATDANYLLDLAELPTELEVQVRYRTAPVKAHVLHADAEGFELEFAEPQFAVAPGQSAVLYAGSRLLGGGLIADHARELPALTEGHHHHHH | soluble |
| MSLARPDELMFAPLGGVGEIGMNLSIYGLGNRHQRSWLAVDLGVSFGDEEHLPGIDLIMPDVRFLEKERKNLVGLVLTHAHEDHFGAIIELWPRLKCPIYATKFSAALFEAKCAAERNPPDIPVTVVPSGDRIDLGPFGVEFVPVAHSIPESHALAIHTAAGIVVHTGDWKIDPTPIVGPPTDERRLRELGDEGVLALIGDSTNAVRDGRSPSETEVAKTIAELVKAARGRVAVTTFASNVGRLRAVADAARAAGREVVVVGRAMERVVQVARETGHLDGMQELRSADVYGHLPSDKVLALCTGSQGEPRAALARIAKDDHPQVTLNRGDTVIFSSRTIPGNERAVGAIINGLVTQGIKVITDRTELVHVSGHPRRDELRDMIAWVRPQLLIPVHGEALHLSEHAQLARAAGVPKVLICKNGDLVRLGPEGHHHHHH | soluble |
| MSLARSMTTGRSGTIGVVVGDIENPFFSLAVRGITDVARQAGFTVILINSGEDAAAEKAAIRTLLAKRVDGLIVSPAKENDVEHLHEVIRSGLPLALLDRGSDTLEVDTVLADDRYTAENVTSRLIALGHRRIAYLTACDTPDHRFRTPQDISTGSVRRRIEGYLAVCREAGFIGMEDWVKVGAVTPERTHRIVIETLQSGHRPTAIIASDSIIGLEVFKAHRELGLNIPGDLSLVSFHDADWTSVTTPPVTVVRQPVYELGATAARLLVERLNGEDRAARKVVLKNEVVERASTRAIEGHHHHHH | soluble |
| MSLARSRARVETIAELERTNAALQQALDENAALHAQLLVQAREAGVADERRRLAAEIHDTLAQGLTGIIAQLQVVAAAPDPALGREHLDRALALARHSLGEARRSVHNLSPVALAEDGLPDALKKTVTEWGARTGVQARFTVTGTAEHLHDEVAATLLRIAQEALSNTARHAAADRVGVTLSYMGDEVTLDIRDDGRGFDPLTARECGPGGGFGLDGMRARAERIAGSLTVEAEPGHGTAVSARVPLVRHDREGHHHHHH | soluble |
| MSLARTEKIYIYGASGHGLVCEDVAKNMGYKECIFLDDFKGMKFESTLPKYDFFIAIGNNEIRKKIYQKISENGFKIVNLIHKSALISPSAIVEENAGILIMPYVVINAKAKIEKGVILNTSSVIEHECVIGEFSHVSVGAKCAGNVKIGKNCFLGINSCVLPNLSLADDSILGGGATLVKNQDEKGVFVGVPAKRMEGGSHHHHHH | soluble |
| MSLARVELHVHLDGAVGVEELYNISVKRRLQLPGGVKSAAELQAYIIRISPAWHRFDVVNDIIGGDEAVIRDVAEGFVGRQARAGIVYTEVRYDPERLSRSGLANVSISRQAAVRAVRDGLRVGAEKHGVVAYQILCAMRGKSAEQCMATATLAAQMRSTSMGGVVGLDLAGDEVTYRNAPYVGCLRYAKRDLRLNITVHSGEFTETPADEVRSAVVDMGADRVGHGYAAVRNAATLSLVKERLIHVEACPRSAQLHGDLDALDEYRRAQLNFGLNTDDPSVFFGNGTIALDEAIVQDVLHYSVDEVRNAYANALSAAFGPTSAIPGLLRGSAPIVVEGHHHHHH | soluble |
| MSLASFPHRNLTWNDINFVHTTDTHGWYSGHINQPLYHANWGDFISFTTHMRRIAHSRNQDLLLIDSGDRHDGNGLSDITSPNGLKSTPIFIKQDYDLLTIGNHELYLWENSKQEYETVVNHFQDKYVCSNVDIRLDNGLFVPLGLKYKYFTTPIRGIRVMAFGFLFDFKRFNSGTRVTPMAETIHEPWFQEALKHEVDLIIIVGHTPISHNWGEFYQVHQYLRQFFPDTIIQYFGGHSHIRDFTVFDSLSTGLQSGRYCETVGWTSVNLDKADLNLPVRQRFSRSYIDEGHHHHHH | not soluble |
| MSLASPDWQDQIIYFLMIDRFNDGDSALNDQGQNEFDPTSDKKFSGGDLVGVSDKLSYIEDLGATSIWITPPVANQWWDAEQNYGGYHGYWARDFQKVDEHFGDMESYQALAREVHARNMFLIQDIVTNHVGNFFTYDDPYSYDPSLPCQGFRLIKNALPAGQELPYPLNMNECKTDGTGSYHWTPTITDHNDPVQEKTWQLSDLDDLNTSDPEVRAYLKESYRKWIREVGVDGFRIDTVKFVEHDFWSDFLHADDGVMTQAVDTGRDNFLTFGEVFETSTPYHTEGEEKMLTYIGESGSPKQLTSVLNFPLQATMTRVFASGQPTDYLRFRLEKMMEMFPNPYIMPNFIDNHDMPRFLSQGSVNDMKQALITMMSVPGIPVIYQGTEQAMSAARDAMFAGGYREDGNYVDSFDQNSEMYLFIQELAKLRTENKVMTRGEIKVIGSDKAGAGVFAFTRTLDNDEVLVVMNTSNSPMLMNQLDVEQAGGTVFKQQIMSNWADAPEQLVADENGHVTLELPAKSAVIYSKTSSNQSVNTPDLNIQLAQDWEGKTITGDIVIAGSANANEKLNLVVDGNLETAQTITVGADGQFSVTLSTRHFAIGEQQHRFAIYSTEKKAGIEDVNFVSNLSWSNTPDDTIDDAGDAQDGVGGPNGNYSLPTDPTFDKDNSQLAINKAEVFTVGSNVRLTFTMDKITDTWLPPNGFDHVGFTIFIDLPEEAATNLSELPKINASMPNGTWSRNAVVFGWQSSIYNTKGANATTWGEAVTPAPTVTVDKANNTISMDFASDALGRPESLDGIRFYVTTWDLDGLSATYRPLEQDKGPWNFSGGASDESKIWDDLPIITLSEGHHHHHH | not soluble |
| MSLATIYDVAKAAGVSPKTVSRVLNDDAPVNESTRQAVNEAIAALDYLPSQAARMMRSSRSRLIGLITGAISQEIGPAVQSGLPEMNIVQAIQREMSAQGKILMISDTGGRADAAPVLARTFAQHRVEGLIYVADHHREIEMDLTSGNCPVVLVNCYDAAATPCVLPDDEAGEAALVARLIEAGHRRIGFLPPDRTQPAARLRLDGYRTALAAAGLAYDPDLVAHVHDPDADRARALLTEALDALLSLDAPPSVICCTNDEMAMRLYGLLRSRGLRVPDDISVAGYDDHKTISEMLYPQLTTVVLPYSEMGRQAARLMLELIEGKPLASPGPTLVDGPVVWRSSVTEGHHHHHH | soluble |
| MSLATYETFAAVYDAVMDDTLYAKWTDFSLRHFPKGKKKLLELACGTGIQSVRFAQAGYAVTGLDLSGDMLKLAKKRATSAHQSIQFIEGNMLDLSNVGKYDLITCYSDSICYMQDEVEVGDVFIEVYKALEENGVFIFDVHSTYQTDKVFPGYSYHENADDFAMVWDTYEDDAPHSIVHELTFFVQEEDGRFTRHDEVHEERTYDILTYDILLEQAGFKDVKVYADFEDKKPTATSARWFFVAHKEGHHHHHH | soluble |
| MSLAVEAVIWDFGGVFTTSPFEAFRRYETERGLPKDFIRTVNATDPDANAWARFERAEIDAAAFDGLFRQEALRLGHDVRGADVLPLLYGDLRPSVMAALKTCKAQFKVGCITNNVPTGHGPGMAQSAEKALAVGEIMALFDAVIESSKAGVRKPDPRIYQMMCELLGVAPEACIYLDDLGINCKPAAALGMTAIKVSDERQLLDDLAKATGLAFEGHHHHHH | soluble |
| MSLAVGKYTQLISDLLQSVSIVDALPRGAAQAGILCQDTKEVLESENTVLEIAIPRQDNLVIVGDIHGQFADMLSNVLSIQLNLNNTKATDGRGSPSTEIYKFLFLGDYVDRGPQSLEVITLLFALKVEYPEHIFLLRGNHEEAQTSRLYGFFQECKSKLEGTGDRGPASVDITSSTWLQYNTVFCWLPLAAVVACPSGMFFCTHGGLSPHTLSVPLLRSLRRNEYGMVDDFEDTFYTPTSRGGDDMLEGPGAKARLVIDGLLWSDPEDQVSGCQMNNRGCGFIFGPDVTRSFLDRNYSYGFPPSKRQLIGEMKPGMQFILRGHQCAREGYMWCHGGLVLTLFSAPNYCGMHGNKGAVALLRGQVQAGKDRVELEFNVYDTVVRGGSDNLVACLSPFAFAHYFSGDSEGHHHHHH | not soluble |
| MSLAVKILSVDDELDLEVLLTQYFRRQIRKGEYEFAFAHNGLEALQKLLETPDFDIILSDINMPEMDGLTLLAKVNELKNPAMKCIMVSAYGDMDNIRSAMNKGAFDFATKPIDLDDLSRTIEKAIEQVRYIRESQQEHNQLESIKNDLAIAGEIQQTILPRSFPPFPELTEVVNIYASMTPAKDVGGDFYDFFQIDDERIGLVIADVSGKGVPASLFMAVSRTLLRATALRGVSSAECLTYANKLLCKESLDSMFVTVFYGIYHYKTGMMDYTNAGHNPPYLLRGGRTVECLPVASNFVVGVFDDIEFESNTLTFGIGDTLLLYTDGVTEAFNDKREQFSESNLQDILASMHESSSAKEVVTSVLQSVKTFSGDYPQSDDITLLSLQRIKEGHHHHHH | soluble |
